Changes are numbered by the printed parent chain. Numbered stars: 1 amine (or outer) side, 2 acyl side, 3 side chain; on linkers, the order of the positions; unused ones are H or OH. Square brackets hold non-standard residues; d marks the D form. Side chains are listed from the residue outwards. Ends that are not written are not given here. * marks the point of attachment. C20 diacid = O=C(O)CCCCCCCCCCCCCCCCCCC(=O)*; γGlu = O=C(O)[C@H](CCC(=O)[*:2])N[*:1]; AEEA = NCCOCCOCC(=O)O; Aib = CC(C)(N)C(=O)O
B1: Example 77 (peptide)
peptide: Y[Aib]EGTFTSDYSILLKIAQ[Aib]AFIEYLIEGGPSSGAPPK([AEEA-AEEA-γGlu-C20 diacid])S-NH2
modifications: N-terminus assumed
SMILES: CC[C@H](C)[C@H](NC(=O)[C@H](CCCCN)NC(=O)[C@H](CC(C)C)NC(=O)[C@H](CC(C)C)NC(=O)[C@@H](NC(=O)[C@H](CO)NC(=O)[C@H](Cc1ccc(O)cc1)NC(=O)[C@H](CC(=O)O)NC(=O)[C@H](CO)NC(=O)[C@@H](NC(=O)[C@H](Cc1ccccc1)NC(=O)[C@@H](NC(=O)CNC(=O)[C@H](CCC(=O)O)NC(=O)C(C)(C)NC(=O)[C@@H](N)Cc1ccc(O)cc1)[C@@H](C)O)[C@@H](C)O)[C@@H](C)CC)C(=O)N[C@@H](C)C(=O)N[C@@H](CCC(N)=O)C(=O)NC(C)(C)C(=O)N[C@@H](C)C(=O)N[C@@H](Cc1ccccc1)C(=O)N[C@H](C(=O)N[C@@H](CCC(=O)O)C(=O)N[C@@H](Cc1ccc(O)cc1)C(=O)N[C@@H](CC(C)C)C(=O)N[C@H](C(=O)N[C@@H](CCC(=O)O)C(=O)NCC(=O)NCC(=O)N1CCC[C@H]1C(=O)N[C@@H](CO)C(=O)N[C@@H](CO)C(=O)NCC(=O)N[C@@H](C)C(=O)N1CCC[C@H]1C(=O)N1CCC[C@H]1C(=O)N[C@@H](CCCCNC(=O)COCCOCCNC(=O)COCCOCCNC(=O)CC[C@H](NC(=O)CCCCCCCCCCCCCCCCCCC(=O)O)C(=O)O)C(=O)N[C@@H](CO)C(N)=O)[C@@H](C)CC)[C@@H](C)CC
B2: Example 88 (peptide)
peptide: YPEGTFTSDYSILLDKK([AEEA-AEEA-γGlu-C20 diacid])AQ[Aib]AFIEYLIEGGPSSGAPPPS-NH2
modifications: N-terminus assumed
SMILES: CC[C@H](C)[C@H](NC(=O)[C@H](CC(C)C)NC(=O)[C@H](Cc1ccc(O)cc1)NC(=O)[C@H](CCC(=O)O)NC(=O)[C@@H](NC(=O)[C@H](Cc1ccccc1)NC(=O)[C@H](C)NC(=O)C(C)(C)NC(=O)[C@H](CCC(N)=O)NC(=O)[C@H](C)NC(=O)[C@H](CCCCNC(=O)COCCOCCNC(=O)COCCOCCNC(=O)CC[C@H](NC(=O)CCCCCCCCCCCCCCCCCCC(=O)O)C(=O)O)NC(=O)[C@H](CCCCN)NC(=O)[C@H](CC(=O)O)NC(=O)[C@H](CC(C)C)NC(=O)[C@H](CC(C)C)NC(=O)[C@@H](NC(=O)[C@H](CO)NC(=O)[C@H](Cc1ccc(O)cc1)NC(=O)[C@H](CC(=O)O)NC(=O)[C@H](CO)NC(=O)[C@@H](NC(=O)[C@H](Cc1ccccc1)NC(=O)[C@@H](NC(=O)CNC(=O)[C@H](CCC(=O)O)NC(=O)[C@@H]1CCCN1C(=O)[C@@H](N)Cc1ccc(O)cc1)[C@@H](C)O)[C@@H](C)O)[C@@H](C)CC)[C@@H](C)CC)C(=O)N[C@@H](CCC(=O)O)C(=O)NCC(=O)NCC(=O)N1CCC[C@H]1C(=O)N[C@@H](CO)C(=O)N[C@@H](CO)C(=O)NCC(=O)N[C@@H](C)C(=O)N1CCC[C@H]1C(=O)N1CCC[C@H]1C(=O)N1CCC[C@H]1C(=O)N[C@@H](CO)C(N)=O
B3: Example 4 (peptide)
peptide: YXEGTXTSDXSIXLDXKAQXEFIXXLIEGGPSSGAPPPS
modifications: Aib2; αMeF(2F)6; 4Pal10; αMeL13; Orn16; K17((2-[2-(2-Amino-ethoxy)-ethoxy]-acetyl)2-(γ-Glu)-CO-(CH2)16-CO2H); Aib20; D-Glu24; αMeY25; C-terminal NH2
B4: Example 78 (peptide)
peptide: XXEGTFTSDYSILLDKKAQXAFIEYLIEGGPSSGAPPPS
modifications: D-Tyr1; Aib2; K17((2-[2-(2-Amino-ethoxy)-ethoxy]-acetyl)2-(γ-Glu)-CO-(CH2)18-CO2H); Aib20; C-terminal NH2
B5: Example 83 (peptide)
peptide: B4 peptide with X1Y, E28X
modifications: Aib2; K17((2-[2-(2-Amino-ethoxy)-ethoxy]-acetyl)2-(γ-Glu)-CO-(CH2)18-CO2H); Aib20; D-Glu28; C-terminal NH2
B6: Example 79 (peptide)
peptide: B4 peptide with X2A
modifications: N-terminal Ac; D-Tyr1; K17((2-[2-(2-Amino-ethoxy)-ethoxy]-acetyl)2-(γ-Glu)-CO-(CH2)18-CO2H); Aib20; C-terminal NH2
B7: Example 82 (peptide)
peptide: B4 peptide with X1Y, I12X
modifications: Aib2; D-Ile12; K17((2-[2-(2-Amino-ethoxy)-ethoxy]-acetyl)2-(γ-Glu)-CO-(CH2)18-CO2H); Aib20; C-terminal NH2
B8: Example 89 (peptide)
peptide: B4 peptide with X1Y, E3X
modifications: Aib2; Aad3; K17((2-[2-(2-Amino-ethoxy)-ethoxy]-acetyl)2-(γ-Glu)-CO-(CH2)18-CO2H); Aib20; C-terminal NH2
B9: Example 84 (peptide)
peptide: B4 peptide with X1Y, E24X
modifications: Aib2; K17((2-[2-(2-Amino-ethoxy)-ethoxy]-acetyl)2-(γ-Glu)-CO-(CH2)18-CO2H); Aib20; D-Glu24; C-terminal NH2
B10: Example 81 (peptide)
peptide: B4 peptide with X1Y, S11X
modifications: Aib2; D-Ser11; K17((2-[2-(2-Amino-ethoxy)-ethoxy]-acetyl)2-(γ-Glu)-CO-(CH2)18-CO2H); Aib20; C-terminal NH2
B11: Example 85 (peptide)
peptide: Y[Aib]EGTFTSDASILLDKK([AEEA-AEEA-γGlu-C20 diacid])AQ[Aib]AFIEYLIEGGPSSGAPPPS-NH2
modifications: N-terminus assumed
SMILES: CC[C@H](C)[C@H](NC(=O)[C@H](CC(C)C)NC(=O)[C@H](Cc1ccc(O)cc1)NC(=O)[C@H](CCC(=O)O)NC(=O)[C@@H](NC(=O)[C@H](Cc1ccccc1)NC(=O)[C@H](C)NC(=O)C(C)(C)NC(=O)[C@H](CCC(N)=O)NC(=O)[C@H](C)NC(=O)[C@H](CCCCNC(=O)COCCOCCNC(=O)COCCOCCNC(=O)CC[C@H](NC(=O)CCCCCCCCCCCCCCCCCCC(=O)O)C(=O)O)NC(=O)[C@H](CCCCN)NC(=O)[C@H](CC(=O)O)NC(=O)[C@H](CC(C)C)NC(=O)[C@H](CC(C)C)NC(=O)[C@@H](NC(=O)[C@H](CO)NC(=O)[C@H](C)NC(=O)[C@H](CC(=O)O)NC(=O)[C@H](CO)NC(=O)[C@@H](NC(=O)[C@H](Cc1ccccc1)NC(=O)[C@@H](NC(=O)CNC(=O)[C@H](CCC(=O)O)NC(=O)C(C)(C)NC(=O)[C@@H](N)Cc1ccc(O)cc1)[C@@H](C)O)[C@@H](C)O)[C@@H](C)CC)[C@@H](C)CC)C(=O)N[C@@H](CCC(=O)O)C(=O)NCC(=O)NCC(=O)N1CCC[C@H]1C(=O)N[C@@H](CO)C(=O)N[C@@H](CO)C(=O)NCC(=O)N[C@@H](C)C(=O)N1CCC[C@H]1C(=O)N1CCC[C@H]1C(=O)N1CCC[C@H]1C(=O)N[C@@H](CO)C(N)=O
B12: Example 86 (peptide)
peptide: Y[Aib]EGTFTSDYSILLDKK([AEEA-AEEA-γGlu-C20 diacid])AQ[Aib]AFIEYLIEAGPSSGAPPPS-NH2
modifications: N-terminus assumed
SMILES: CC[C@H](C)[C@H](NC(=O)[C@H](CC(C)C)NC(=O)[C@H](Cc1ccc(O)cc1)NC(=O)[C@H](CCC(=O)O)NC(=O)[C@@H](NC(=O)[C@H](Cc1ccccc1)NC(=O)[C@H](C)NC(=O)C(C)(C)NC(=O)[C@H](CCC(N)=O)NC(=O)[C@H](C)NC(=O)[C@H](CCCCNC(=O)COCCOCCNC(=O)COCCOCCNC(=O)CC[C@H](NC(=O)CCCCCCCCCCCCCCCCCCC(=O)O)C(=O)O)NC(=O)[C@H](CCCCN)NC(=O)[C@H](CC(=O)O)NC(=O)[C@H](CC(C)C)NC(=O)[C@H](CC(C)C)NC(=O)[C@@H](NC(=O)[C@H](CO)NC(=O)[C@H](Cc1ccc(O)cc1)NC(=O)[C@H](CC(=O)O)NC(=O)[C@H](CO)NC(=O)[C@@H](NC(=O)[C@H](Cc1ccccc1)NC(=O)[C@@H](NC(=O)CNC(=O)[C@H](CCC(=O)O)NC(=O)C(C)(C)NC(=O)[C@@H](N)Cc1ccc(O)cc1)[C@@H](C)O)[C@@H](C)O)[C@@H](C)CC)[C@@H](C)CC)C(=O)N[C@@H](CCC(=O)O)C(=O)N[C@@H](C)C(=O)NCC(=O)N1CCC[C@H]1C(=O)N[C@@H](CO)C(=O)N[C@@H](CO)C(=O)NCC(=O)N[C@@H](C)C(=O)N1CCC[C@H]1C(=O)N1CCC[C@H]1C(=O)N1CCC[C@H]1C(=O)N[C@@H](CO)C(N)=O

Columns and labels:
human GLP-1 receptor = human GLP-1 receptor (human, UniProt P43220 24-463); experiment: cell-based or functional assay
human GIP receptor = target: T1, human GIP receptor (human, UniProt P48546 22-466); experiment: cell-based or functional assay
T1 sequence (looked up): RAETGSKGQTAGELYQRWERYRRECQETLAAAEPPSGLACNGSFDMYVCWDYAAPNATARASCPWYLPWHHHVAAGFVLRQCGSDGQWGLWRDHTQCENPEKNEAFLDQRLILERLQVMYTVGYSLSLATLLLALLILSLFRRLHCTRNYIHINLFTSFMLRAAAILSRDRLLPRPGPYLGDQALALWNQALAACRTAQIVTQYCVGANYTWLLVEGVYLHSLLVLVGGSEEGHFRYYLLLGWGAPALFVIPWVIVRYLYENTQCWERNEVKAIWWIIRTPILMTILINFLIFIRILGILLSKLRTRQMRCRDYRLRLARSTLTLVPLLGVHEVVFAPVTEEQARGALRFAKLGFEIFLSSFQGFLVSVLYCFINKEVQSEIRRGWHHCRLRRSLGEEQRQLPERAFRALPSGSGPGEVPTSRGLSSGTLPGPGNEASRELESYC

Binder | hGLP1R cAMP EC50 ratio (human GLP-1 receptor) | hGLP1R cAMP Rel EC50 (human GLP-1 receptor) | hGIPR cAMP EC50 ratio (human GIP receptor) | hGIPR cAMP Rel EC50 (human GIP receptor)
B1 | < 3.25e-05 | > 2000 nM | 0.00102 | 135 nM
B2 | 0.0918 | 0.64 nM | 0.392 | 0.475 nM
B3 | 1.41 | 0.0297 nM | 5.95 | 0.0272 nM
B4 | 0.143 | 0.544 nM | 0.293 | 0.532 nM
B5 | 0.166 | 0.387 nM | 0.804 | 0.182 nM
B6 | 0.041 | 2.02 nM | 2.11 | 0.0732 nM
B7 | 0.00325 | 26.1 nM | 0.00679 | 24.3 nM
B8 | 0.175 | 0.335 nM | 1.57 | 0.119 nM
B9 | 0.173 | 0.374 nM | 1.59 | 0.0915 nM
B10 | 0.063 | 1.29 nM | 0.373 | 0.428 nM
B11 | 1.13 | 0.0518 nM | 0.111 | 1.67 nM
B12 | 0.243 | 0.271 nM | 3.29 | 0.0452 nM

Source: patent US20220048967A1 (published 2022)
